Assays:
[1] = biological target: T1, Human CD40 ECD protein (mouse IgG2a Fc tag) (human, UniProt P25942 21-193); experiment: bridging ELISA, coated B7H4, soluble CD40 ECD-mFc
T1 construct: extracellular domain; also called Human CD40-msFc; human recombinant CD40; not shown: mouse IgG2a Fc tag
Method: Anti-B7H4/CD40 bi-specific antibodies were analyzed by ELISA for their simultaneous binding to recombinant human B7H4 and human CD40. Briefly, human B7H4 protein was diluted and coated onto an ELISA plate with a volume of […] by incubation at 4° C. overnight. The next day, the plate was blocked by PBST-BSA buffer, then serially diluted samples of anti-B7H4/CD40 bi-specific antibodies were pipetted into appropriate wells at 50 μL/well, and the plate was incubated for 1 h followed by Washing. Human CD40 ECD protein (mouse IgG2a Fc tag) was added into the plate at 50 μL/well. After 1-hour incubation at room temperature, HRP-conjugated anti-mouse IgG (H+L) antibody was added into the plate at 100 μL/well. The plate was incubated for 1 hour at room temperature followed by washing. TMB substrate solution was added at 100 μL/well and the color development was stopped by adding 100 uL/well Stop Solution (2N H2SO4). Absorbance at 450 nm and 620 nm was read by Tecan F200 Pro plate reader. GraphPad 7.0, “[Agonist] vs. response—Variable slope (four parameters)” was used to plot the binding data and calculate binding EC50 values.

[2] = biological target: T2, human B7H4 expressed on CHO cells (human, UniProt Q7Z7D3 25-282); experiment: FACS, CHO cells
T2 construct: whole, on cells; also called VCTN1
T2 sequence (looked up): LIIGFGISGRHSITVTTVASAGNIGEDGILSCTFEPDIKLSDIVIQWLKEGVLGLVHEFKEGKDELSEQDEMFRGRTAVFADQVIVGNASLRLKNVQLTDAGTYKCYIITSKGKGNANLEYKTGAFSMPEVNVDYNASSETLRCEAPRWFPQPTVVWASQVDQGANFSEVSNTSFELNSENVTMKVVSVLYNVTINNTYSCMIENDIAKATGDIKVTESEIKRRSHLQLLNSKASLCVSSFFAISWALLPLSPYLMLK

[3] = biological target: T3, human CD40 expressed on CHO cells (human, UniProt P25942 21-277); experiment: FACS, CHO cells
T3 construct: whole, on cells; also used for the reporter cells over-expressing human CD40; also called cellular CD40; CHO-CD40 cells
T3 sequence (P25942 21-277): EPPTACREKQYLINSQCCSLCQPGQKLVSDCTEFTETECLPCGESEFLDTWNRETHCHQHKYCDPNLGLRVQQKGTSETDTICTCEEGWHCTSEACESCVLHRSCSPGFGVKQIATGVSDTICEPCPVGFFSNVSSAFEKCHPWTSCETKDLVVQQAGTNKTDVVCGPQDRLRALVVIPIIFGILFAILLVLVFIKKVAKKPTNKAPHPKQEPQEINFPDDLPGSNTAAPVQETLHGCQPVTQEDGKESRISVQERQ

[4] = biological target: T4, human PD-L1 expressed on CHO cells (human, UniProt Q9NZQ7 19-290); experiment: FACS, CHO cells
T4 construct: whole, on cells; also used for human PD-L1 on Raji cells in the reporter assay; also called cell surface PD-L1; Raji-PD-L1 cells
T4 sequence (Q9NZQ7 19-290): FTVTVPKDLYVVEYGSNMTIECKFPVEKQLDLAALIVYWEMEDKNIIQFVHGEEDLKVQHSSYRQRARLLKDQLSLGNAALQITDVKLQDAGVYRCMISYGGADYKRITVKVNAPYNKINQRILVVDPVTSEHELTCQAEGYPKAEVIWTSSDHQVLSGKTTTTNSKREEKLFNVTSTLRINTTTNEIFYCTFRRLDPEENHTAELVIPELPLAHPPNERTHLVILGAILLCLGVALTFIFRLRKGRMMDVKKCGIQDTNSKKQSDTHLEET

T1 sequence (P25942 21-193): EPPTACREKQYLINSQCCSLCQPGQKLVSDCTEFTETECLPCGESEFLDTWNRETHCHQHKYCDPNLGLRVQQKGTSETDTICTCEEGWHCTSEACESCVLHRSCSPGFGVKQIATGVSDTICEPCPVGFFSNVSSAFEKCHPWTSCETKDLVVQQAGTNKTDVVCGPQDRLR

B1: Ly487 (bispecific antibody, human IgG1, kappa)
heavy: EVQLVESGGGLVKPGGSLKLSCAASGFTFSDSGMHWVRQAPEKGLEWITYINSGSSTIYYADSVKGRFTISRDNAKNTLFLQMTSLRSEDTAMYYCARGRGYAMDYWGQGTSVTVSSASTKGPSVFPLAPSSKSTSGGTAALGCLVKDYFPEPVTVSWNSGALTSGVHTFPAVLQSSGLYSLSSVVTVPSSSLGTQTYICNVNHKPSNTKVDKKVEPKSCDKTHTCPPCPAPELLGPSVFLFPPKPKDTLMISRTPEVTCVVVDVSHEDPEVKFNWYVDGVEVHNAKTKPREEQYNSTYRVVSVLTVLHQDWLNGKEYKCKVSNKALPAPIEKTISKAKGQPREPQVYTLPPSREEMTKNQVSLTCLVKGFYPSDIAVEWESNGQPENNYKTTPPVLDSDGSFFLYSKLTVDKSRWQQGNVFSCSVMHEALHNHYTQKSLSLSPGGGGGSGGGGSGGGGSGGGGSQVQLVESGGGLVQPGGSLKLSCATSGFNFNDYFMNWVRQASGKGLEWVGQIRNKNYNYATYYTESLEGRVTISRDDSKNTAYLQMNSLKTEDTAVYYCTSYYYDGFADYFDYWGQGTTVTVSSGGGGSGGGGSGGGGSGGGGSDIQMTQSPSSLSASVGDRVTITCKASQNIYIYLNWYQQKPGKAPKLLIYNTNNLQTGVPSRFSGSGSGTDFTLTISSLQPEDFATYYCLQHSSRRTFGGGTKVEIK
light: EIVLTQSPTTMAASPGEKITIFCSASSSISSDFLHWYQQKPGFSPKLLIYRISNLASGVPARFSGSGSGTSYSLTIGTMEAEDVATYYCQQGSNVPRTFGGGTKLEIKRTVAAPSVFIFPPSDEQLKSGTASVVCLLNNFYPREAKVQWKVDNALQSGNSQESVTEQDSKDSTYSLSSTLTLSKADYEKHKVYACEVTHQGLSSPVTKSFNRGEC
notes: Ly366 HC (IgG1 mutated Fc)-TM740 scFv VH-VL + Ly366 LC
- binding result [1]: binds
- binding result [2]: binds
- binding result [3]: binds

B2: Ly490 (bispecific antibody, human IgG1, kappa)
heavy: EVQLVESGGGLVKPGGSLKLSCAASGFTFSDSGMHWVRQAPEKGLEWITYINSGSSTIYYADSVKGRFTISRDNAKNTLFLQMTSLRSEDTAMYYCARGRGYAMDYWGQGTSVTVSSASTKGPSVFPLAPSSKSTSGGTAALGCLVKDYFPEPVTVSWNSGALTSGVHTFPAVLQSSGLYSLSSVVTVPSSSLGTQTYICNVNHKPSNTKVDKKVEPKSCDKTHTCPPCPAPELLGPSVFLFPPKPKDTLMISRTPEVTCVVVDVSHEDPEVKFNWYVDGVEVHNAKTKPREEQYNSTYRVVSVLTVLHQDWLNGKEYKCKVSNKALPAPIEKTISKAKGQPREPQVYTLPPSREEMTKNQVSLTCLVKGFYPSDIAVEWESNGQPENNYKTTPPVLDSDGSFFLYSKLTVDKSRWQQGNVFSCSVMHEALHNHYTQKSLSLSPGGGGGSGGGGSGGGGSGGGGSDIQMTQSPSSLSASVGDRVTITCLASEDISNDLAWYQQKPGKAPKLLIYFVDRLLDGVPSRFSGSGSGTDFTLTISSLQPEDFATYYCQQSYKYPPTFGQGTKLEIKGGGGSGGGGSGGGGSGGGGSEVQLVESGGGLVQPGGSLRLSCAASGFTFTNYGLHWVRQAPGKGLEWVSSISPSGGVTYYRDSVKGRFTISRDNSKNTLYLQMNSLRAEDTAVYYCAKPFLGWGGANWIAHWGQGTLVTVSS
light: EIVLTQSPTTMAASPGEKITIFCSASSSISSDFLHWYQQKPGFSPKLLIYRISNLASGVPARFSGSGSGTSYSLTIGTMEAEDVATYYCQQGSNVPRTFGGGTKLEIKRTVAAPSVFIFPPSDEQLKSGTASVVCLLNNFYPREAKVQWKVDNALQSGNSQESVTEQDSKDSTYSLSSTLTLSKADYEKHKVYACEVTHQGLSSPVTKSFNRGEC
notes: Ly366 HC (IgG1 mutated Fc)-TM559 scFv VL-VH + Ly366 LC
- binding result [1]: binds
- binding result [2]: binds
- binding result [3]: binds

B3: Ly491 (bispecific antibody, human IgG1, kappa)
heavy: EVQLVESGGGLVKPGGSLKLSCAASGFTFSDSGMHWVRQAPEKGLEWITYINSGSSTIYYADSVKGRFTISRDNAKNTLFLQMTSLRSEDTAMYYCARGRGYAMDYWGQGTSVTVSSASTKGPSVFPLAPSSKSTSGGTAALGCLVKDYFPEPVTVSWNSGALTSGVHTFPAVLQSSGLYSLSSVVTVPSSSLGTQTYICNVNHKPSNTKVDKKVEPKSCDKTHTCPPCPAPELLGPSVFLFPPKPKDTLMISRTPEVTCVVVDVSHEDPEVKFNWYVDGVEVHNAKTKPREEQYNSTYRVVSVLTVLHQDWLNGKEYKCKVSNKALPAPIEKTISKAKGQPREPQVYTLPPSREEMTKNQVSLTCLVKGFYPSDIAVEWESNGQPENNYKTTPPVLDSDGSFFLYSKLTVDKSRWQQGNVFSCSVMHEALHNHYTQKSLSLSPGGGGGSGGGGSGGGGSGGGGSEVQLVESGGGLVQPGGSLRLSCAASGFTFTNYGLHWVRQAPGKGLEWVSSISPSGGVTYYRDSVKGRFTISRDNSKNTLYLQMNSLRAEDTAVYYCAKPFLGWGGANWIAHWGQGTLVTVSSGGGGSGGGGSGGGGSGGGGSDIQMTQSPSSLSASVGDRVTITCLASEDISNDLAWYQQKPGKAPKLLIYFVDRLLDGVPSRFSGSGSGTDFTLTISSLQPEDFATYYCQQSYKYPPTFGQGTKLEIK
light: EIVLTQSPTTMAASPGEKITIFCSASSSISSDFLHWYQQKPGFSPKLLIYRISNLASGVPARFSGSGSGTSYSLTIGTMEAEDVATYYCQQGSNVPRTFGGGTKLEIKRTVAAPSVFIFPPSDEQLKSGTASVVCLLNNFYPREAKVQWKVDNALQSGNSQESVTEQDSKDSTYSLSSTLTLSKADYEKHKVYACEVTHQGLSSPVTKSFNRGEC
notes: Ly366 HC (IgG1 mutated Fc)-TM559 scFv VH-VL + Ly366 LC
- binding result [1]: binds
- binding result [2]: binds
- binding result [3]: binds

B4: Ly494 (bispecific antibody, human IgG1, kappa)
heavy: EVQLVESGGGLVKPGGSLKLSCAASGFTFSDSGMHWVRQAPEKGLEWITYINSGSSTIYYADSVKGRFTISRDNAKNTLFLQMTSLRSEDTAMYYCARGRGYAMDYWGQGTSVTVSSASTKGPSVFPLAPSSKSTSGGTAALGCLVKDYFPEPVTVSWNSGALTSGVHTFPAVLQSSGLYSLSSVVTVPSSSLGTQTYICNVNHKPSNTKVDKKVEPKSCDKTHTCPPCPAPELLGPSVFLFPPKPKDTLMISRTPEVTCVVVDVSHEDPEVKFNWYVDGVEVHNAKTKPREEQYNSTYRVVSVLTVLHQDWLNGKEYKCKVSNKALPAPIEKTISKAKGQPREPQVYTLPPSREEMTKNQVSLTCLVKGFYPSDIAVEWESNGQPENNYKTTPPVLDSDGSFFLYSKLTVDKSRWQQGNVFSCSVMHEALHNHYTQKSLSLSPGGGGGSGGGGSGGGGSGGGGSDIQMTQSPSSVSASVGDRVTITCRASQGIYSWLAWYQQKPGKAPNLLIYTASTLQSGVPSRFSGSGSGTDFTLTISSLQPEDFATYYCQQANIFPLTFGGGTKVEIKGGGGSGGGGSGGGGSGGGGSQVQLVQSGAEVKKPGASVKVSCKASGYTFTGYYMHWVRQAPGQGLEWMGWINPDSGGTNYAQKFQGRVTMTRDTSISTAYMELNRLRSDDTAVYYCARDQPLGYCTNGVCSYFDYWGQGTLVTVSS
light: EIVLTQSPTTMAASPGEKITIFCSASSSISSDFLHWYQQKPGFSPKLLIYRISNLASGVPARFSGSGSGTSYSLTIGTMEAEDVATYYCQQGSNVPRTFGGGTKLEIKRTVAAPSVFIFPPSDEQLKSGTASVVCLLNNFYPREAKVQWKVDNALQSGNSQESVTEQDSKDSTYSLSSTLTLSKADYEKHKVYACEVTHQGLSSPVTKSFNRGEC
notes: Ly366 HC (IgG1 mutated Fc)-Ly253 scFv VL-VH + Ly366 LC
- binding result [1]: binds
- binding result [2]: binds
- binding result [3]: binds

B5: Ly495 (bispecific antibody, human IgG1, kappa)
heavy: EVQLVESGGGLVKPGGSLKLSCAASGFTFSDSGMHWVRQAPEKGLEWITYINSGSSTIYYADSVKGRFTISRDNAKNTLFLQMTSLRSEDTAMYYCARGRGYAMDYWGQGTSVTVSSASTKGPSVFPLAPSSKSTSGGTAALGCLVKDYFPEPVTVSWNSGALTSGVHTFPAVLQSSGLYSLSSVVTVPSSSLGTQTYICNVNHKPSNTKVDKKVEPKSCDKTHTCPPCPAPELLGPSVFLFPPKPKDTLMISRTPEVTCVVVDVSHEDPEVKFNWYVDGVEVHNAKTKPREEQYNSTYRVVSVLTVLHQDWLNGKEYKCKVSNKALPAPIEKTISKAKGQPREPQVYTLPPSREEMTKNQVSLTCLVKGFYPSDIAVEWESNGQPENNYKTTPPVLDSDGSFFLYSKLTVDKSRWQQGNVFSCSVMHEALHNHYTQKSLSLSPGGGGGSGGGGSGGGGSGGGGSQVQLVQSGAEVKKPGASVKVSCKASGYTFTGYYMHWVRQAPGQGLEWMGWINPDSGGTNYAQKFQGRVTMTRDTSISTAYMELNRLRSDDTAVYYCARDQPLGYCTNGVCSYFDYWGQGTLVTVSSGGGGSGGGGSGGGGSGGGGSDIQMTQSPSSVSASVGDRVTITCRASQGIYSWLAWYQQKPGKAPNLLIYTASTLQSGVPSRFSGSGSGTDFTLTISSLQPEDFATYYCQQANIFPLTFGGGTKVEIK
light: EIVLTQSPTTMAASPGEKITIFCSASSSISSDFLHWYQQKPGFSPKLLIYRISNLASGVPARFSGSGSGTSYSLTIGTMEAEDVATYYCQQGSNVPRTFGGGTKLEIKRTVAAPSVFIFPPSDEQLKSGTASVVCLLNNFYPREAKVQWKVDNALQSGNSQESVTEQDSKDSTYSLSSTLTLSKADYEKHKVYACEVTHQGLSSPVTKSFNRGEC
notes: Ly366 HC (IgG1 mutated Fc)-Ly253 scFv VH-VL + Ly366 LC
- binding result [1]: binds
- binding result [2]: binds
- binding result [3]: binds

B6: Ly075 (antibody, human IgG1, kappa, V domains shown)
VH: QVQLVQSGAEVKKPGASVKVSCKASGYTFTDFWMSWVRQAPGQGLEWMGQIYPNTGTTHSNEKFKGRVTMTRDTSTSTVYMELSSLRSEDTAVYYCARSYHISTTPNWFAYWGQGTLVTVSS
VL: DIQMTQSPSSLSASVGDRVTITCKASQNVYKKLEWYQQKPGKVPKLLIYHTNILQTGVPSRFSGSGSGTDFTLTISSLQPEDVATYYCYQWNSGPTFGGGTKVEIKR
notes: humanized LYV5574, VH-1 and VL-1, human IgG1/kappa
- binding result [4]: binds

B7: Ly076 (antibody, human IgG1, kappa, V domains shown)
VH: QVQLVQSGAEVKKPGASVKVSCKASGYTFTDFWMSWVRQAPGQGLEWMGQIYPNTGTTHSNEKFKGRVTMTRDTSTSTVYMELSSLRSEDTAVYYCARSYHISTTPNWFAYWGQGTLVTVSS
VL: DIQMTQSPSSLSASVGDRVTITCKASQNVYKKLEWYQQKPGKVPKVLIYHTNILQTGVPSRFSGSGSGTDYTLTISSLQPEDVATYYCYQWNSGPTFGGGTKVEIKR
notes: humanized LYV5574, VH-1 and VL-2 (L42V, F71Y), human IgG1/kappa
- binding result [4]: binds

Reference: US20220372155A1 (LYVGEN BIOPHARMA, published 2022)
